This passage reports IC50 results from paper PMC3552960, “Constitutively Active CCR5 Chemokine Receptors Differ in Mediating HIV Envelope-dependent Fusion” (PLoS ONE, 2013).

Positions count from the first letter of the chain named.

What all share (test): radioligand binding
Holding throughout (conditions): one partner purified

Experiment [1] has as its target T1, wild type human CCR5 chemokine receptor (human, UniProt P51681 1-352).
T1 construct: source: HOS-CD4-Luc, transiently transfected, on cells (fusion)

In experiment [2] the target is T2, CCR5 Thr^2.56(82)Pro mutant receptor (human, UniProt P51681 1-352, Thr^2.56(82)Pro).
T2 construct: also called T^2.69(82)P; source: HOS-CD4-Luc, transiently transfected, on cells (fusion)
T2 sequence: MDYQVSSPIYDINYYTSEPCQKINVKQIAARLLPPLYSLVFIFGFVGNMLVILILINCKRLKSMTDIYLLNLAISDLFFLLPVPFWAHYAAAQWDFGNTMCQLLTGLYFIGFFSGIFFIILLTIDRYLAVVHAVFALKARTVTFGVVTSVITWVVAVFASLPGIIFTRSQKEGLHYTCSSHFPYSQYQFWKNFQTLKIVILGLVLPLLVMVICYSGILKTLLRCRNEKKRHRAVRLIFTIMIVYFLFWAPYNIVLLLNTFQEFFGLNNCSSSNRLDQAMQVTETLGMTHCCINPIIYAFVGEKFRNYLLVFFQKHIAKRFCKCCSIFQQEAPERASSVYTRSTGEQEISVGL

Experiment [3] deals with T3, CCR5 Thr^2.56(82)Lys/Arg^6.32(225)Gln double-mutant receptor (human, UniProt P51681 1-352, Thr^2.56(82)Lys | Arg^6.32(225)Gln).
T3 construct: also called T^2.56(82)K/R^6.32(225)Q; T^2.69(82)K/R^6.32(225)Q; source: HOS-CD4-Luc, transiently transfected, on cells (fusion)
T3 sequence: T2 sequence with P82K, R225Q

In experiment [4] the target is T4, CCR5 Thr^2.56(82)Pro/Arg^6.32(225)Gln double-mutant receptor (human, UniProt P51681 1-352, Thr^2.56(82)Pro | Arg^6.32(225)Gln).
T4 construct: also called T^2.56(82)P/R^6.32(225)Q; T^2.69(82)P/R^6.32(225)Q; source: HOS-CD4-Luc, transiently transfected, on cells (fusion)
T4 sequence: T2 sequence with R225Q

Broadly, the IC50 is the midpoint of a concentration-inhibition curve. A low value points to inhibition by little substance.

B1: macrophage inflammatory protein 1β (MIP-1β, CCL4), recombinant human, unlabelled (ligand)
chain: APMGSDPPTACCFSYTARKLPRNFVVDYYETSSLCSQPAVVFQTKRSKQVCADPSESWVQEYVYDLELN
notes: also called unlabelled MIP-1β; source: bought: Peprotec (Rocky Hill, NJ)
Turning to B1, the half-inhibitory concentration (IC50) worked out at 32.6 nM in experiment [1], 31.9 nM in experiment [2], 20.7 nM in experiment [3] and 30.6 nM in experiment [4].
